The values below come from IntAct's records for PubMed 20169075.

First the molecules themselves.
B1: Dimethyl sulfoxide reductase DmsA (Escherichia coli (strain K12)), P18775 (parent)
chain: MKTKIPDAVLAAEVSRRGLVKTTAIGGLAMASSALTLPFSRIAHAVDSAIPTKSDEKVIWSACTVNCGSRCPLRMHVVDGEIKYVETDNTGDDNYDGLHQVRACLRGRSMRRRVYNPDRLKYPMKRVGARGEGKFERISWEEAYDIIATNMQRLIKEYGNESIYLNYGTGTLGGTMTRSWPPGNTLVARLMNCCGGYLNHYGDYSSAQIAEGLNYTYGGWADGNSPSDIENSKLVVLFGNNPGETRMSGGGVTYYLEQARQKSNARMIIIDPRYTDTGAGREDEWIPIRPGTDAALVNGLAYVMITENLVDQAFLDKYCVGYDEKTLPASAPKNGHYKAYILGEGPDGVAKTPEWASQITGVPADKIIKLAREIGSTKPAFISQGWGPQRHANGEIATRAISMLAILTGNVGINGGNSGAREGSYSLPFVRMPTLENPIQTSISMFMWTDAIERGPEMTALRDGVRGKDKLDVPIKMIWNYAGNCLINQHSEINRTHEILQDDKKCELIVVIDCHMTSSAKYADILLPDCTASEQMDFALDASCGNMSYVIFNDQVIKPRFECKTIYEMTSELAKRLGVEQQFTEGRTQEEWMRHLYAQSREAIPELPTFEEFRKQGIFKKRDPQGHHVAYKAFREDPQANPLTTPSGKIEIYSQALADIAATWELPEGDVIDPLPIYTPGFESYQDPLNKQYPLQLTGFHYKSRVHSTYGNVDVLKAACRQEMWINPLDAQKRGIHNGDKVRIFNDRGEVHIEAKVTPRMMPGVVALGEGAWYDPDAKRVDKGGCINVLTTQRPSPLAKGNPSHTNLVQVEKV
partner: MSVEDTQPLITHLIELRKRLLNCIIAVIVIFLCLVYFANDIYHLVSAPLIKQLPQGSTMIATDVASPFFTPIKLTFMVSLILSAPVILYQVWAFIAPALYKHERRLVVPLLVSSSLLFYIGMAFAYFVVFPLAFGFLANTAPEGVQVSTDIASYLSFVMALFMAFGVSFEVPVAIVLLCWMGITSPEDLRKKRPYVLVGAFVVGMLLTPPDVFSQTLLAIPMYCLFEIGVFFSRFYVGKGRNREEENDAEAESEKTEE
B2: Tat proofreading chaperone DmsD (Escherichia coli (strain K12)), P69853 (parent)
chain: MTHFSQQDNFSVAARVLGALFYYAPESAEAAPLVAVLTSDGWETQWPLPEASLAPLVTAFQTQCEETHAQAWQRLFVGPWALPSPPWGSVWLDRESVLFGDSTLALRQWMREKGIQFEMKQNEPEDHFGSLLLMAAWLAENGRQTECEELLAWHLFPWSTRFLDVFIEKAEHPFYRALGELARLTLAQWQSQLLIPVAVKPLFR
B3: Dimethyl sulfoxide reductase DmsA (Escherichia coli (strain K12)), P18775 (parent)
chain: B1 chain
partner: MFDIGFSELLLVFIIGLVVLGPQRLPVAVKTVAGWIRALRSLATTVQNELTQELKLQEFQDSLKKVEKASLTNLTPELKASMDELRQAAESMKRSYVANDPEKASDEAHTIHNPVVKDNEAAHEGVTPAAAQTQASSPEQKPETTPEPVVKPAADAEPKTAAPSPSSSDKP
B4: Sec-independent protein translocase protein TatC (Escherichia coli (strain K12)), P69423 (parent)
chain: B1 partner

One test covers variants of B1. The settings on record: with tatc_ecoli tatC, P69423.
As for R16K;R17K, the “effect of a mutation on the interaction” value is on record as “increasing interaction”.

The variants in a further test derive from B2. The settings on record: with dmsa_ecoli dmsA.
Consider W72H;L75Y, for which the “effect of a mutation on the interaction” value was “increasing interaction”.

Variants of B3 are the subject of another test. The settings on record: with tatb_ecoli tatB.
On to R16K;R17K, for which the “effect of a mutation on the interaction” value is recorded as “increasing interaction”.

In the next test the parent is B4. The settings on record: with dmsa_ecoli dmsA, P18775.
Consider E103R, for which the “effect of a mutation on the interaction” value is recorded as “decreasing interaction”.

Turning to P48A, the “effect of a mutation on the interaction” value is recorded as “decreasing interaction”.

The next test covers variants of B4. The settings on record: with dmsd_ecoli dmsD.
In the case of E103R, the “effect of a mutation on the interaction” value is on record as “disrupting interaction”. Still for that read-out and setting: for P48A the value was “decreasing interaction”.
